Here are results for 1 substance from patent US20120100160A1.

This assay concerns the target murine LFA-1 (on TK1/TK-1 cells or primary murine splenocytes) (murine) (UniProt P24063). Kind of assay: cell-based or functional assay.
Sequence of UniProt P24063 (P24063 24-1162, chain 1 of 2): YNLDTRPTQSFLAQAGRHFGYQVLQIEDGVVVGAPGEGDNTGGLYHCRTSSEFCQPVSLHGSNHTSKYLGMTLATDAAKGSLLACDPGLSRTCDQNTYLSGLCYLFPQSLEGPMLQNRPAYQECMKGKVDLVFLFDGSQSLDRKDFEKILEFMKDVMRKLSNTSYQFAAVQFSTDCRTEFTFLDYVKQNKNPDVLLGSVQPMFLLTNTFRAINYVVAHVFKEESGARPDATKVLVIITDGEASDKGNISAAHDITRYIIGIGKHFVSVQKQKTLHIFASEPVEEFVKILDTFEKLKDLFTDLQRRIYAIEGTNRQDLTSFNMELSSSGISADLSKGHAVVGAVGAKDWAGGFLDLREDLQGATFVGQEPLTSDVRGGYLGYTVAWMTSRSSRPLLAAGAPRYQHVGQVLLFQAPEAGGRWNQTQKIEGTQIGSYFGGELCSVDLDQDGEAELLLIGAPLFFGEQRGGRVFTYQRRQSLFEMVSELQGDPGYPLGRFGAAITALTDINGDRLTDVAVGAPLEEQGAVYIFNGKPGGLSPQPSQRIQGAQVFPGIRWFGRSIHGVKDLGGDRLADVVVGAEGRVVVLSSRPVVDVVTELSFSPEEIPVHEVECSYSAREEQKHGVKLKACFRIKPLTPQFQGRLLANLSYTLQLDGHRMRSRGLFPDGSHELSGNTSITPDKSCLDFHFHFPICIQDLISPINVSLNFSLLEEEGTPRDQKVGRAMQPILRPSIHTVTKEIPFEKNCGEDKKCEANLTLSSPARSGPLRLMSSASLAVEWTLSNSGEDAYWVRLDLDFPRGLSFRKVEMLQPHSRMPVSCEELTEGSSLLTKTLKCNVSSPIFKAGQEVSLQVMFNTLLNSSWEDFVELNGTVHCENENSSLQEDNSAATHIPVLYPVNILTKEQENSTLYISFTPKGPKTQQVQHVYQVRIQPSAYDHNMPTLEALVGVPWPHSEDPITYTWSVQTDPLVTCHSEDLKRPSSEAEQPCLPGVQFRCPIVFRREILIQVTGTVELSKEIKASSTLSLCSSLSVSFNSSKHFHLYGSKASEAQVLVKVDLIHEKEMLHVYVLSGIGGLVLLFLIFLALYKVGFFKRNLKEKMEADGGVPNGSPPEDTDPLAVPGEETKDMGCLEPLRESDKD
Sequence of UniProt P24063 (P11835 24-771, chain 2 of 2, further chain): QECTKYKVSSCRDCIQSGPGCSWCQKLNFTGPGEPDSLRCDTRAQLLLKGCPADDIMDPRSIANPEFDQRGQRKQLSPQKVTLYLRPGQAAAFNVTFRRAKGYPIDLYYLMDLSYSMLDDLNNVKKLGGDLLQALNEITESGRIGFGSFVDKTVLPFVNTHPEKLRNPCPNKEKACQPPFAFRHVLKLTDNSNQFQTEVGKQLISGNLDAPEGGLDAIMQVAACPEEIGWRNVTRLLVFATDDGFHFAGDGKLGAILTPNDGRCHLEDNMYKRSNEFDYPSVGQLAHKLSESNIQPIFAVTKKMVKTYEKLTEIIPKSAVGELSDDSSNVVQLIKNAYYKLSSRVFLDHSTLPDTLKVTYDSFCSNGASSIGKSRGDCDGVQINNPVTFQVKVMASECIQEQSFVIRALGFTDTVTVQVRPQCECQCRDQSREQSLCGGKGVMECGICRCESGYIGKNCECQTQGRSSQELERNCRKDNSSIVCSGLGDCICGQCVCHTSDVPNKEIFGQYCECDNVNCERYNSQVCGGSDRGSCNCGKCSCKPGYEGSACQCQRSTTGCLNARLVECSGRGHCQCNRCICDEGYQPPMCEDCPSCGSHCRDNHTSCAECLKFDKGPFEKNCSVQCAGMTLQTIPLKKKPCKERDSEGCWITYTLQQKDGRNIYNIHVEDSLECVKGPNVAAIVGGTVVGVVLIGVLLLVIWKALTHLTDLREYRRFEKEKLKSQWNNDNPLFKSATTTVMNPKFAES

As for “multimerized ICAM-1-protamine fusion protein (80 pmoles fusion protein with 10 pmoles anti-Fc Fab′2)”, the CD45 knockdown in TK-1 cells: subpopulation of CD45-low cells at the 6:1 ratio of siRNA to fusion protein is 14%.
